According to PMC8189969, “Interaction standards for biophysics: anti-lysozyme nanobodies” (European Biophysics Journal, 2021):
Positions count from the first letter of the chain named. Names and notes keep the numbering of the source.

B1: H04 nanobody (VHH)
VHH: EVQLLESGGGLVQPGGSLRLSCAASGFRFDAEDMGWVRQAPGKGLEWVSSIYGPSGSTYYADSVKGRFTISRDNSKNTLYLQMNSLRAEDTAVYYCAKYTSPPQNHGFDYWGQGTLVTVSS
notes: crystal structure with lysozyme PDB 4U3X (Rouet et al. 2015); CDR3 of 12 residues; Developed in Daniel Christ's group (Rouet et al. 2015); source: E. coli T7-Express, purified (IMAC, Superdex-75)
B2: Phage-F07 nanobody (VHH)
VHH: EVQLQASGGGFVQPGGSLRLSCAASGTSSDLYDMGWFRQAPGKEREFVSAISGDDTQYTYYADSVKGRFTISRDNSKNTVYLQMNSLRAEDTATYYCAPRAHEPHGHWNYYWGQGTQVTVSS
notes: selected by phage display from the NaLi-H1 synthetic library (Hybrigenics); also called P-F07; source: E. coli T7-Express, purified (IMAC, Superdex-75)
B3: H04 H106A nanobody (VHH)
VHH: B1 VHH with H106A
notes: as the chain of m2 (H04) with H106A in CDR3; source: E. coli T7-Express, purified (IMAC, Superdex-75)
B4: Phage-B09 nanobody (VHH)
VHH: EVQLQASGGGFVQPGGSLRLSCAASGSTYRRSTMGWFRQAPGKEREFVSAISSDHSHPDYYADSVKGRFTISRDNSKNTVYLQMNSLRAEDTATYYCAFQYDSDKKSYWGQGTQVTVSS
notes: selected by phage display from the NaLi-H1 synthetic library (Hybrigenics); also called P-B09; source: E. coli T7-Express, purified (IMAC, Superdex-75)
B5: Cab-Lys3 nanobody (VHH)
VHH: DVQLQASGGGSVQAGGSLRLSCAASGYTIGPYCMGWFRQAPGKEREGVAAINMGGGITYYADSVKGRFTISQDNAKNTVYLLMNSLEPEDTAIYYCAADSTIYASYYECGHGLSTGGYGYDSWGQGTQVTVSS
notes: crystal structure PDB 1XFP named for it (Muyldermans and Lauwereys 1999); CDR3 of 24 residues with an extra disulphide between CDR1 and CDR3; also called WT Cab-Lys3; source: E. coli T7-Express, purified (IMAC, Superdex-75)
B6: Cab-Lys3 T101S nanobody (VHH)
VHH: B5 VHH with T101S
notes: as the chain of m6 (Cab-Lys3) with T101S in CDR3; source: E. coli T7-Express, purified (IMAC, Superdex-75)
B7: Cab-Lys3 S105N nanobody (VHH)
VHH: B5 VHH with S105N
notes: as the chain of m6 (Cab-Lys3) with S105N in CDR3; source: E. coli T7-Express, purified (IMAC, Superdex-75)

target: H04 nanobody; experiment: SEC-MALS; Superdex-75 10/300, 0.75 ml/min, PBS pH 7.4; Wyatt Helios 18-angle photometer, QELS, Optilab TrEX; conditions: not given

Binder	stoichiometry N
B1	2

target: T1, hen egg white lysozyme (Gallus gallus (hen egg white), UniProt P00698); experiment: ITC; Malvern PEAQ-ITC; 20 °C; PBS pH 7.4 with 0.005% tween 20; lysozyme in the cell and nanobody titrated (so in the source); nanobody 20 or 30 µM, lysozyme 200 or 300 µM; single site model; conditions: both partners purified
T1 construct: hen egg white lysozyme (HEWL), 14.5 kDa, monomeric; The source is named for ITC (Roche powder); also called HEWL; source: bought: Roche (HEWL lysozyme powder, > 95%)
T1 sequence (P00698 19-147): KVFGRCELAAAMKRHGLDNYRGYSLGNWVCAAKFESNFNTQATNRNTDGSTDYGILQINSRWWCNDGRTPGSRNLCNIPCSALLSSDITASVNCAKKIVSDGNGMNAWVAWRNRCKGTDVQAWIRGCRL

Binder	Kd [nM]	dH [kcal/mol]
B2	685	-23.5
B1	24	-17.6
B3	296	-17
B4	1430	-14.5
B5	27	1.6
B6	113	3
B7	125	2.6

target: T1, hen egg white lysozyme; experiment: SPR; Biacore T200; lysozyme amine-coupled (EDC/NHS) to a CM5 chip, max 100 units; nanobody as analyte, multi-cycle kinetics; PBS with 0.01% tween20; 20 °C (row labels of Table 1); Langmuir 1:1 model; conditions: both partners purified

Binder	Kd [nM]	koff [s⁻¹]	kon [M⁻¹ s⁻¹]
B1	19	0.0008	43000
B3	124	0.056	450000
B4	1300	0.6	450000
B5	5	0.0009	41000
B6	135	0.029	160000
B7	35	0.0028	79000

target: T1, hen egg white lysozyme; experiment: as above; conditions: both partners purified; remark: another data set of the same source

Binder	Kd [nM]
B3	~250

target: T1, hen egg white lysozyme; experiment: ITC; Malvern PEAQ-ITC; 37 °C; PBS pH 7.4 with 0.005% tween 20; lysozyme in the cell and nanobody titrated (so in the source); single site model; conditions: both partners purified

Binder	Kd [nM]	dH [kcal/mol]
B5	5	-4.02
B6	105	-5.1
B7	73	-3.3
